B1: BEW-5C3-E7 (antibody, IgG2b, V domains shown)
VH: QIQLVQSGPELKKPGESVKISCKASGYTFTNYGVYWVKQAPGQGLQYMGWINTETGKPTYADDFKGRFVFFLETSTNTAYLQINNLKNEDMATFFCARARQLDWFVYWGQGTLVTVSS
VL: DTVLTQSPALTVSPGERVSISCRARESLTTSLCWFQQKPGQQPKLLIYGASKLESGVPARFSGSGSGTDFTLTIDPVEADDTATYFCQQSWYDPPTFGGGTKLELK
B2: BEW-9D2-E8 (antibody, IgG2a, V domains shown)
VH: QIQLVQSGPELKKPGESVKISCKASGYTFTNYGMYWVKLAPGQGLQYLGWINTETGKPTYADDFKGRFVFFLETSASTAYLQINNLRNEDMATYFCARPSDYYDGFWFAYWGQGTLVTVSS
VL: DTVLTQSPALTVSPGERVSISCRASEWVNSYMHWYQQNPGQQPKLLIYKASNLASGVPARFSGSGSGTDFTLTLDPVEADDTATYFCQQSWNDPLTFGSGTKLEIK
B3: BEW-1E3-D6 (antibody, IgG2b, V domains shown)
VH: QIQLVQSGPELKKPGESVKISCKASGYPFTNSGMYWVKQAPGQGLQYMGWINTEAGKPTYADDFKGRFVFFLETSASTAYLQINNLKNEDMATYFCARWGYISDNSYGWFDYWGQGTLVTVSS
VL: B2 VL with T11A, W27G, N29Y, L74I, Q88H, S90N
B4: BEW-9E7-B4 (antibody, IgG2b, V domains shown)
VH: QIQLVQSGPELKKPGESVKISCKASGYTFTNYGMYWVKQAPGQGLQYMGWIDTETGKPTYADDFKGRFVFFLETSASTAYLQINNLRNEDMATYFCARWGYTSDYYYGWFPDWGQGTLVTVST
VL: B2 VL with T11A, W27G, T73N, L74I, D75H, S90N, D93V
B5: BEW-9E3-B9 (antibody, IgG2a, V domains shown)
VH: B2 VH with L39Q, L48M, Y80F, R87K, A109P, T115A
VL: B2 VL with V3I, T11A, V18I, W27G, L74I
B6: BEW-3A1-D10-G9 (antibody, IgG2b, V domains shown)
VH: QVQLEQSGAELVKPGTSVKLSCMASGYTSSSNHMNWMKQTTGQGLEWIGIINPGSGGTRYNVKFEGKATLTVDKSSSTAFMQLNSLTPEDSAVYYCARAGFPGPFSYYAMGAWGQGTSVTVSS
VL: DIQMTQSPPVLSASVGDRVTLSCKASQNIHNNLDWYQQKHGEAPKLLIFYTNNLQTGIPSRFSGSGSGTDYTLTISSLQPEDVATYYCYQYNSGYTFGAGTKLELK
B7: BEW-10H2-B9 (antibody, IgG2b, V domains shown)
VH: QIQLVQSGPELKKPGESVKISCKASGYSFTNFGLYWVKQAPGQGLQYMGWIDTETGKPTYADDFRGRFVFFLETSASTAYLQINNLKNEDMATYFCARVYGYPSWYFDFWGPGTMVTVSS
VL: DIQMTQSPASLSTSLEEIVTITCQASQDIDNYLSWYQQKPGKSPQLLIHSATSLADGVPSRFSGSRSGTQFSLKIHRLQVEDTGIYYCLQHFFPPWTFGGGTKLELK
B8: BEW-1B4-C4 (antibody, IgG2b, V domains shown)
VH: QIQLVQSGPELKKPGESVKISCKASGYSFTNYGMYWVKQAPGQGLQYMGWIDTETGKPTYTDDFKGRFVFFLETSASTAYLQINNLKNEDMATYFCARWSGDTAGIRGPWFAYWGQGTLVTVSS
VL: DIRMTQSPASLSASLGETVNIECLASEDIYSDLAWYQQKPGKSPQLLIYNANDLQKGVPSRFSGSGSGTQYSLKINSLQSEDVATYFCQQYNYYPGTFGAGTKLELK
notes: Rat hybridoma monoclonal antibody
B9: BEW-9E10-E7 (antibody, IgG2a, V domains shown)
VH: B8 VH with V5L, S28T, K57R, T61A, A104T
VL: B8 VL with K42R, D53G, K56N, S63G, Y94F
B10: BEW-1B10-B9-C3 (antibody, IgG2a, V domains shown)
VH: EVQLVESGGGLVQPGRSLKLSCAASGFSFSKYDMAWFRQTPTKGLEWVASITTSGVGTYYRDSVKGRFTVSRDNAKSTLYLQMDSLRSEDTATYYCARGYGAMDAWGQGTSVTVSS
VL: DIQMTQSPASLSASLEEIVTITCKASQDIDDYLSWYQQKPGKSPQLVIYAATRLADGVPSRFSGSGSGTQYSLKISRLQVDDSGIYYCLQSSSTPWTFGGGTNLELK
B11: BEW-9C2-D6 (antibody, IgG2b, V domains shown)
VH: QIQLVQSGPELKKPGESVKVSCKASGYTFTNYGIHWVKQAPGQGLQYVGWINTETGRPTYADDFKGRFVFFLETSASTAYLQINNLKNEDMATYFCARPLYYGYAHYFDYWGQGVMVTVSS
VL: DIQMTQSPASLSASLEEIVTITCQASQDIGNWLAWYQQKPGKSPQLLIYGATSLADGVPSRFSGSRSGTQYSLKISRLQVEDIGIYYCQQASSVTYTFGAGTKLELK
B12: BEW-8E6-E4 (antibody, IgG2a, V domains shown)
VH: QIQLVQSGPELKKPGESVKISCKASGYTFTDYAMHWVKQAPGKVLKWMGWINTFTGKPTYIDDFKGRFVFSLEASASTANLQISDLKNEDTATYFCARGNYYSGYWYFDFWGPGTMVTMSS
VL: DIQMTQSPASLSASLGETISIECRASEDISSNLAWYQQKSGKSPQLLIFAANRLQDGVPSRFSGSGSGTQFSLKISGMQPEDEGDYFCLQGSKFYTFGAGTKLELK
B13: BDB-4G8-D4 (antibody, IgG2b, V domains shown)
VH: QIQLVQSGPELKKPGESVKISCKASGYTFTNYGMYWVKQAPGQGLQYMGWINTETGKPTYADDFKGRFVFFLETSASTAYLQINNLKNEDMATYFCARTNYYYRSYIFYFDYWGQGTMVTVSS
VL: DTVLTQSPALAVSPGERVSISCRASESVSTHMHWYQQKPGQQPKLLIYGASNLESGVPARFSGSGSGTDFTLTIDPVEADDTATYFCQQSWNDPFTFGAVTKLELK
B14: BEW-9A8-E2 (antibody, IgG2a, V domains shown)
VH: QIQLVQSGPELKKPGESVKISCKASGYTFTNYGMYWVKQAPGQGLQYMGWINTETGKPIYADDFKGRFVFFLETSASTAYLQINNLKNEDMATFFCARVDYDGSFWFAYWGQGTLVTVSS
VL: B13 VL with H31V, M32I, Y48H, S90H, F95P, V100G, L105M
B15: BED-4G10-C8 (antibody, IgG2b, V domains shown)
VH: QVQLQQSGTELVKPGSSVKISCKASGYTFTSNYMHWIRQQPGNGLEWIGWIYPGDGDTNYNHNFNGKATLTADKSSSTAYMQLSSLTSEDFAVYFCASSTRAIPGWFTYWGQGTLVTVSS
VL: B13 VL with R23W, H31L, P39L, S62R, N92S, F95Y, V100G
B16: BEW-6C2-C8 (antibody, IgG2b, V domains shown)
VH: EVQLVESGGGLVQPGSSLKLSCAASGFTFSYYGMHWIRQAPKKGLEWMALIYYDSSKMYYADSVKGRFTISRDNSKNTLYLEMNSLRSEDTAMYYCAAGGTAPVYWGQGVMVTVSS
VL: NIQLTQSPSLLSASVGDRVTLSCKGSQNIANYLAWYQQKLGEAPKLLIYNTDSLQTGIPSRFSGSGSGTDYTLTISSLQPEDVATYFCYQSNNGYTFGAGTKLELR

Residue numbers refer to the chain shown, from its start. Where “and” joins values, the source holds several entries; their conditions need not be identical. Identical values can stand only once.

T1 sequence (P15692 other isoform, or with tags, fused parts or gaps limits assumed): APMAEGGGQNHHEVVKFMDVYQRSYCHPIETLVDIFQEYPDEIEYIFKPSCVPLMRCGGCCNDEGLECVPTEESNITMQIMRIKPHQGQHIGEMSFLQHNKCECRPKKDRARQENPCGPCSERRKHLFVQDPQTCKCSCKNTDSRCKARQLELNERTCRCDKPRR

The experiment has as its target T1, Human VEGF-A 165 (human, UniProt P15692 207-395).
T1 construct: also called hVEGF165; huVEGF-A165
The experiment in a line: Biacore SPR (Example 1.1). The method, then:
Unreacted moieties on the biosensor surface were blocked with ethanolamine. For kinetic analysis, rate equations derived from the 1:1 Langmuir binding model were fitted simultaneously to multiple antigen injections (using global fit analysis) with the use of Scrubber 2 (BioLogic Software), Biacore Biaevaluation 4.0.1 software or Biacore T100 Evaluation software. Purified antibodies or DVD-Ig molecules were diluted in running buffer for capture across goat anti-human Fc reaction surfaces. Antibodies or DVD-Ig molecules to be captured as a ligand (1 μg/ml) were injected over reaction matrices at a flow rate of 10 μl/minute. During the assay, all measurements were referenced against the capture surface alone (i.e., with no captured antibody or DVD-Ig molecule). […] The equilibrium dissociation constant KD (M) of the reaction between antibodies and the target antigen was then calculated from the kinetic rate constants by the following formula: KD=Koff/Kₒₙ. Binding was recorded as a function of time and kinetic rate constants were calculated. In this assay, on-rates as fast as 10⁶M⁻¹s⁻¹ and off-rates as slow as 10⁻⁶ s⁻¹ could be measured. […]
In general terms: In SPR one partner is held on a chip, and binding of the other changes the refractive index at the surface.
The molecule B1 registered a Kd of 0.0039 nM and a kon of 1.2e+07 M⁻¹ s⁻¹.

For the molecule B2, the Kd stood at 0.014 nM and the kon worked out at 7e+06 M⁻¹ s⁻¹.

Turning to B3, binding was characterised by a dissociation constant (Kd) of 0.01 nM and the kon was 1.4e+07 M⁻¹ s⁻¹.

On to B4, for which the dissociation constant (Kd) amounted to 0.0043 nM and the kon was 5.9e+06 M⁻¹ s⁻¹.

In the case of B5, binding was put at a Kd of 0.014 nM and the kon was 6.7e+06 M⁻¹ s⁻¹.

For B6, the Kd came out at 0.14 nM and the association rate constant (kon) is 1e+07 M⁻¹ s⁻¹.

B7 had a Kd of 0.011 nM and an on-rate constant (kon) of 2.4e+07 M⁻¹ s⁻¹.

Molecule B8 registered a Kd of 0.0074 nM and a kon of 1.8e+07 M⁻¹ s⁻¹.

B9: the Kd is 0.0031 nM and the kon turned out to be 1.3e+07 M⁻¹ s⁻¹.

B10 gave a Kd of 0.016 nM and an on-rate (kon) of 4.4e+06 M⁻¹ s⁻¹.

In the case of B11, the Kd was not above 0.00018 nM and the kon came to 5.5e+06 M⁻¹ s⁻¹.

In turn, B12 displayed a Kd of 0.017 nM and a kon of 6.9e+06 M⁻¹ s⁻¹.

In the case of B13, the Kd was ≤ 0.00081 nM and 0.0012 nM; the kon was ≥ 1e+07 M⁻¹ s⁻¹ and 1.4e+07 M⁻¹ s⁻¹.

The molecule B14 showed a Kd of 0.00096 nM and a kon of 7.4e+06 M⁻¹ s⁻¹.

B15 came in with a dissociation constant Kd of 0.06 nM and an association rate constant (kon) of 1.8e+07 M⁻¹ s⁻¹.

For B16, the Kd turned out to be 0.012 nM and the kon is 6.9e+06 M⁻¹ s⁻¹.

Usually Kd stands for the constant that tells how readily two partners part at equilibrium. As usually defined, the kon is a measure of how fast the partners come together. Lower therefore signals slow association.

The record behind these values is US20170015742A1 (published 2017).
